Measured values: patent publication US20170114108A1

Target: H4 tail (residues 1-30) of the H4ac indicator (UniProt P62805)
Experiment: cell-based or functional assay

TATA binding protein (TBP)-associated factor II (TAFII) bromodomain
percent of cells discriminated from autofluorescence (FACS), H4ac indicator, 1 µM SAHA: 5 % of cells
percent of cells discriminated from autofluorescence (FACS), H4ac indicator, 2.5 µM SAHA: 20 % of cells
percent of cells discriminated from autofluorescence (FACS), H4ac indicator, 7.5 µM SAHA: 40 % of cells
percent of cells discriminated from autofluorescence (FACS), H4ac indicator, 10 µM SAHA: 45 % of cells
